Data from patent publication US20140271457A1 (AbbVie / Abbott, published 2014).

B1: DVD2702 (bispecific antibody, IgG1)
VH: EVQLVQSGAEVKKPGASVKVSCKASGYTFTKYWLGWVRQAPGQGLEWMGDIYPGYDYTHYNEKFKDRVTLTTDTSTSTAYMELRSLRSDDTAVYYCARSDGSSTYWGQGTLVTVSSASTKGPSVFPLAPEVQLVESGGGLVQPGGSLRLSCAASGFTFSNYGVTWVRQAPGKGLEWVSMIWADGSTHYASSVKGRFTISRDNSKNTLYLQMNSLRAEDTAVYYCAREWQHGPVAYWGQGTLVTVSS
VL: DVLMTQTPLSLPVTPGEPASISCTSSQNIVHSNGNTYLEWYLQKPGQSPQLLIYKVSNRFSGVPDRFSGSGSGTDFTLKISRVEAEDVGVYYCFQVSHVPYTFGGGTKVEIKRTVAAPDIQMTQSPSSLSASVGDRVTITCRASQLVSSAVAWYQQKPGKAPKLLIYWASARHTGVPSRFSGSGSGTDFTLTISSLQPEDFATYYCQQHYKTPFTFGQGTKLEIKR
B2: DVD2752 (bispecific antibody, IgG1)
VH: EVQLVQSGAEVKKPGASVKVSCKASGYTFTKYWLGWVRQAPGQGLEWMGDIYPGYDYTHYNEKFKDRVTLTTDTSTSTAYMELRSLRSDDTAVYYCARSDGSSTYWGQGTLVTVSSASTKGPSVFPLAPEVQLVESGGGLVQPGGSLRLSCAASGFTFSNYGVEWVRQAPGKGLEWVSGIWADGSTHYADTVKSRFTISRDNSKNTLYLQMNSLRAEDTAVYYCAREWQHGPVAYWGQGTLVTVSS
VL: DVLMTQTPLSLPVTPGEPASISCTSSQNIVHSNGNTYLEWYLQKPGQSPQLLIYKVSNRFSGVPDRFSGSGSGTDFTLKISRVEAEDVGVYYCFQVSHVPYTFGGGTKVEIKRTVAAPDIQMTQSPSSLSASVGDRVTITCKASQLVSSAVAWYQQKPGKAPKLLIYWASTLHTGVPSRFSGSGSGTDFTLTISSLQPEDFATYYCQQHYRTPFTFGQGTKLEIKR
B3: DVD2794 (bispecific antibody, IgG1)
VH: EVQLVQSGAEVKKPGASVKVSCKASGYTFANYGIIWVRQAPGQGLEWMGWINTYTGKPTYAQKFQGRVTMTTDTSTSTAYMELSSLRSEDTAVYYCARKLFTTMDVTDNAMDYWGQGTTVTVSSASTKGPEVQLVQSGAEVKKPGASVKVSCKASGYTFTKYWLGWVRQAPGQGLEWMGDIYPGYDYTHYNEKFKDRVTLTTDTSTSTAYMELRSLRSDDTAVYYCARSDGSSTYWGQGTLVTVSS
VL: DIQMTQSPSSLSASVGDRVTITCRASQDISQYLNWYQQKPGKAPKLLIYYTSRLQSGVPSRFSGSGSGTDFTLTISSLQPEDFATYFCQQGNTWPPTFGQGTKLEIKRTVAAPDVLMTQTPLSLPVTPGEPASISCTSSQNIVHSNGNTYLEWYLQKPGQSPQLLIYKVSNRFSGVPDRFSGSGSGTDFTLKISRVEAEDVGVYYCFQVSHVPYTFGGGTKVEIKR
B4: DVD2797 (bispecific antibody, IgG1)
VH: EVQLVQSGAEVKKPGASVKVSCKASGYTFANYGIIWVRQAPGQGLEWMGWINTYTGKPTYAQKFQGRVTMTTDTSTSTAYMELSSLRSEDTAVYYCARKLFTTMDVTDNAMDYWGQGTTVTVSSASTKGPSVFPLAPEVQLVQSGAEVKKPGASVKVSCKASGYTFTKYWLGWVRQAPGQGLEWMGDIYPGYDYTHYNEKFKDRVTLTTDTSTSTAYMELRSLRSDDTAVYYCARSDGSSTYWGQGTLVTVSS
VL: DIQMTQSPSSLSASVGDRVTITCRASQDISQYLNWYQQKPGKAPKLLIYYTSRLQSGVPSRFSGSGSGTDFTLTISSLQPEDFATYFCQQGNTWPPTFGQGTKLEIKRTVAAPDVLMTQTPLSLPVTPGEPASISCTSSQNIVHSNGNTYLEWYLQKPGQSPQLLIYKVSNRFSGVPDRFSGSGSGTDFTLKISRVEAEDVGVYYCFQVSHVPYTFGGGTKVEIKR
B5: DVD2796 (bispecific antibody, IgG1)
VH: EVQLVQSGAEVKKPGASVKVSCKASGYTFANYGIIWVRQAPGQGLEWMGWINTYTGKPTYAQKFQGRVTMTTDTSTSTAYMELSSLRSEDTAVYYCARKLFTTMDVTDNAMDYWGQGTTVTVSSASTKGPEVQLVQSGAEVKKPGASVKVSCKASGYTFTKYWLGWVRQAPGQGLEWMGDIYPGYDYTHYNEKFKDRVTLTTDTSTSTAYMELRSLRSDDTAVYYCARSDGSSTYWGQGTLVTVSS
VL: DIQMTQSPSSLSASVGDRVTITCRASQDISQYLNWYQQKPGKAPKLLIYYTSRLQSGVPSRFSGSGSGTDFTLTISSLQPEDFATYFCQQGNTWPPTFGQGTKLEIKRTVAAPSVFIFPPDVLMTQTPLSLPVTPGEPASISCTSSQNIVHSNGNTYLEWYLQKPGQSPQLLIYKVSNRFSGVPDRFSGSGSGTDFTLKISRVEAEDVGVYYCFQVSHVPYTFGGGTKVEIKR
B6: DVD2798 (bispecific antibody, IgG1)
VH: EVQLVQSGAEVKKPGASVKVSCKASGYTFTKYWLGWVRQAPGQGLEWMGDIYPGYDYTHYNEKFKDRVTLTTDTSTSTAYMELRSLRSDDTAVYYCARSDGSSTYWGQGTLVTVSSGGGGSGGGGSEVQLVQSGAEVKKPGASVKVSCKASGYTFANYGIIWVRQAPGQGLEWMGWINTYTGKPTYAQKFQGRVTMTTDTSTSTAYMELSSLRSEDTAVYYCARKLFTTMDVTDNAMDYWGQGTTVTVSS
VL: DVLMTQTPLSLPVTPGEPASISCTSSQNIVHSNGNTYLEWYLQKPGQSPQLLIYKVSNRFSGVPDRFSGSGSGTDFTLKISRVEAEDVGVYYCFQVSHVPYTFGGGTKVEIKRGGSGGGGSGDIQMTQSPSSLSASVGDRVTITCRASQDISQYLNWYQQKPGKAPKLLIYYTSRLQSGVPSRFSGSGSGTDFTLTISSLQPEDFATYFCQQGNTWPPTFGQGTKLEIKR
B7: DVD2744 (bispecific antibody, IgG1)
VH: EVQLVESGGGLVQPGGSLRLSCAASGFTFSNYGVEWVRQAPGKGLEWVSGIWADGSTHYADTVKSRFTISRDNSKNTLYLQMNSLRAEDTAVYYCAREWQHGPVAYWGQGTLVTVSSASTKGPEVQLVQSGAEVKKPGASVKVSCKASGYTFTKYWLGWVRQAPGQGLEWMGDIYPGYDYTHYNEKFKDRVTLTTDTSTSTAYMELRSLRSDDTAVYYCARSDGSSTYWGQGTLVTVSS
VL: DIQMTQSPSSLSASVGDRVTITCKASQLVSSAVAWYQQKPGKAPKLLIYWASTLHTGVPSRFSGSGSGTDFTLTISSLQPEDFATYYCQQHYRTPFTFGQGTKLEIKRTVAAPDVLMTQTPLSLPVTPGEPASISCTSSQNIVHSNGNTYLEWYLQKPGQSPQLLIYKVSNRFSGVPDRFSGSGSGTDFTLKISRVEAEDVGVYYCFQVSHVPYTFGGGTKVEIKR
B8: DVD2746 (bispecific antibody, IgG1)
VH: EVQLVESGGGLVQPGGSLRLSCAASGFTFSNYGVEWVRQAPGKGLEWVSGIWADGSTHYADTVKSRFTISRDNSKNTLYLQMNSLRAEDTAVYYCAREWQHGPVAYWGQGTLVTVSSASTKGPEVQLVQSGAEVKKPGASVKVSCKASGYTFTKYWLGWVRQAPGQGLEWMGDIYPGYDYTHYNEKFKDRVTLTTDTSTSTAYMELRSLRSDDTAVYYCARSDGSSTYWGQGTLVTVSS
VL: DIQMTQSPSSLSASVGDRVTITCKASQLVSSAVAWYQQKPGKAPKLLIYWASTLHTGVPSRFSGSGSGTDFTLTISSLQPEDFATYYCQQHYRTPFTFGQGTKLEIKRTVAAPSVFIFPPDVLMTQTPLSLPVTPGEPASISCTSSQNIVHSNGNTYLEWYLQKPGQSPQLLIYKVSNRFSGVPDRFSGSGSGTDFTLKISRVEAEDVGVYYCFQVSHVPYTFGGGTKVEIKR
B9: DVD2747 (bispecific antibody, IgG1)
VH: EVQLVESGGGLVQPGGSLRLSCAASGFTFSNYGVEWVRQAPGKGLEWVSGIWADGSTHYADTVKSRFTISRDNSKNTLYLQMNSLRAEDTAVYYCAREWQHGPVAYWGQGTLVTVSSASTKGPSVFPLAPEVQLVQSGAEVKKPGASVKVSCKASGYTFTKYWLGWVRQAPGQGLEWMGDIYPGYDYTHYNEKFKDRVTLTTDTSTSTAYMELRSLRSDDTAVYYCARSDGSSTYWGQGTLVTVSS
VL: DIQMTQSPSSLSASVGDRVTITCKASQLVSSAVAWYQQKPGKAPKLLIYWASTLHTGVPSRFSGSGSGTDFTLTISSLQPEDFATYYCQQHYRTPFTFGQGTKLEIKRTVAAPDVLMTQTPLSLPVTPGEPASISCTSSQNIVHSNGNTYLEWYLQKPGQSPQLLIYKVSNRFSGVPDRFSGSGSGTDFTLKISRVEAEDVGVYYCFQVSHVPYTFGGGTKVEIKR
B10: DVD2743 (bispecific antibody, IgG1)
VH: EVQLVESGGGLVQPGGSLRLSCAASGFTFSNYGVEWVRQAPGKGLEWVSGIWADGSTHYADTVKSRFTISRDNSKNTLYLQMNSLRAEDTAVYYCAREWQHGPVAYWGQGTLVTVSSGGGGSGGGGSEVQLVQSGAEVKKPGASVKVSCKASGYTFTKYWLGWVRQAPGQGLEWMGDIYPGYDYTHYNEKFKDRVTLTTDTSTSTAYMELRSLRSDDTAVYYCARSDGSSTYWGQGTLVTVSS
VL: DIQMTQSPSSLSASVGDRVTITCKASQLVSSAVAWYQQKPGKAPKLLIYWASTLHTGVPSRFSGSGSGTDFTLTISSLQPEDFATYYCQQHYRTPFTFGQGTKLEIKRGGSGGGGSGDVLMTQTPLSLPVTPGEPASISCTSSQNIVHSNGNTYLEWYLQKPGQSPQLLIYKVSNRFSGVPDRFSGSGSGTDFTLKISRVEAEDVGVYYCFQVSHVPYTFGGGTKVEIKR
B11: DVD2793 (bispecific antibody, IgG1)
VH: EVQLVQSGAEVKKPGASVKVSCKASGYTFANYGIIWVRQAPGQGLEWMGWINTYTGKPTYAQKFQGRVTMTTDTSTSTAYMELSSLRSEDTAVYYCARKLFTTMDVTDNAMDYWGQGTTVTVSSGGGGSGGGGSEVQLVQSGAEVKKPGASVKVSCKASGYTFTKYWLGWVRQAPGQGLEWMGDIYPGYDYTHYNEKFKDRVTLTTDTSTSTAYMELRSLRSDDTAVYYCARSDGSSTYWGQGTLVTVSS
VL: DIQMTQSPSSLSASVGDRVTITCRASQDISQYLNWYQQKPGKAPKLLIYYTSRLQSGVPSRFSGSGSGTDFTLTISSLQPEDFATYFCQQGNTWPPTFGQGTKLEIKRGGSGGGGSGDVLMTQTPLSLPVTPGEPASISCTSSQNIVHSNGNTYLEWYLQKPGQSPQLLIYKVSNRFSGVPDRFSGSGSGTDFTLKISRVEAEDVGVYYCFQVSHVPYTFGGGTKVEIKR
B12: DVD2748 (bispecific antibody, IgG1)
VH: EVQLVQSGAEVKKPGASVKVSCKASGYTFTKYWLGWVRQAPGQGLEWMGDIYPGYDYTHYNEKFKDRVTLTTDTSTSTAYMELRSLRSDDTAVYYCARSDGSSTYWGQGTLVTVSSGGGGSGGGGSEVQLVESGGGLVQPGGSLRLSCAASGFTFSNYGVEWVRQAPGKGLEWVSGIWADGSTHYADTVKSRFTISRDNSKNTLYLQMNSLRAEDTAVYYCAREWQHGPVAYWGQGTLVTVSS
VL: DVLMTQTPLSLPVTPGEPASISCTSSQNIVHSNGNTYLEWYLQKPGQSPQLLIYKVSNRFSGVPDRFSGSGSGTDFTLKISRVEAEDVGVYYCFQVSHVPYTFGGGTKVEIKRGGSGGGGSGDIQMTQSPSSLSASVGDRVTITCKASQLVSSAVAWYQQKPGKAPKLLIYWASTLHTGVPSRFSGSGSGTDFTLTISSLQPEDFATYYCQQHYRTPFTFGQGTKLEIKR

What follows are binders tested against Recombinant Human TNF-α/TNFSF1A (human, UniProt P01375 77-233) (assay: cell-based or functional assay).
Sequence of Recombinant Human TNF-α/TNFSF1A (P01375 77-233 limits assumed): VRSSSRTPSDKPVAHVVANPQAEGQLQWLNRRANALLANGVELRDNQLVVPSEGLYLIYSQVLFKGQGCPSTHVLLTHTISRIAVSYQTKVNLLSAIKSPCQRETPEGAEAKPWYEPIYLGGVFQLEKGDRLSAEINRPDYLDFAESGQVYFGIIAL

Binder	C-Terminal VD huTNFα Neutralization Assay IC50 [pM]	N-Terminal VD huTNFα Neutralization Assay IC50 [pM]
B1	106	
B2	384	
B3		3
B4		2
B5		10
B6	381	
B7		3
B8		6
B9		3
B10		6
B11		6
B12	2880	
